Laboratory results taken from the supplement of paper PMC5998384.

What was measured:
HeLa Kyoto [1] = test: solubility change mitosis vs G1/S (difference of NP-40 vs SDS log2 ratios) (log2 ratio difference); higher = more soluble in mitosis
HeLa Kyoto [2] = test: solubility in G1/S (NP-40 vs SDS abundance) (log2 ratio); higher = more soluble; conditions: cell cycle stage: G1/S
HeLa Kyoto [3] = test: thermal stability score vs G1/S (z-score of summed log2 fold changes over temperatures); higher = more thermally stable than in G1/S
HeLa Kyoto [4] = test: melting temperature (median over replicates), in situ; higher = more thermally stable
[5] = cell cycle stage: early G1 (4.5 h after nocodazole release)
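Throughout, for melting temperature (median over replicates), in situ: HeLa Kyoto cells synchronized by double thymidine or nocodazole block, proteins quantified by TMT10plex mass spectrometry, three independent biological replicates.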
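Throughout, for solubility change mitosis vs G1/S (difference of NP-40 vs SDS log2 ratios): synchronized HeLa Kyoto cells (double thymidine block for G1/S, nocodazole release for mitosis), protein amounts in NP-40 versus SDS lysates quantified by mass spectrometry, three biological replicates.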
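Throughout, for solubility in G1/S (NP-40 vs SDS abundance): HeLa Kyoto cells arrested at G1/S by double thymidine block, proteins quantified by TMT10plex mass spectrometry in mild NP-40 versus SDS extracts, three biological replicates.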
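Throughout, for thermal stability score vs G1/S (z-score of summed log2 fold changes over temperatures): synchronized HeLa Kyoto cells, proteins quantified by TMT10plex mass spectrometry, three biological replicates, mitosis taken 0.5 h after nocodazole release, G1/S directly after double thymidine block.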

Row | Sequence | solubility change mitosis (log2) (HeLa Kyoto [1]) | solubility in G1/S (log2) (HeLa Kyoto [2]) | thermal stability score (HeLa Kyoto [3]; [5]) | thermal stability score (HeLa Kyoto [3]; cell cycle stage: mitosis) | melting temperature (HeLa Kyoto [4]; cell cycle stage: G1/S) [°C] | melting temperature (HeLa Kyoto [4]; cell cycle stage: mitosis) [°C]
1 | MNWNKGGPGTKRGFGFGGFAISAGKKEEPKLPQQSHSAFGATSSSSGFGKSAPPQLPSFYKIGSKRANFDEENAYFEDEEEDSSNVDLPYIPAENSPTRQQFHSKPVDSDSDDDPLEAFMAEVEDQAARDMKRLEEKDKERKNVKGIRDDIEEEDDQEAYFRYMAENPTAGVVQEEEEDNLEYDSDGNPIAPTKKIIDPLPPIDHSEIDYPPFEKNFYNEHEEITNLTPQQLIDLRHKLNLRVSGAAPPRPGSSFAHFGFDEQLMHQIRKSEYTQPTPIQCQGVPVALSGRDMIGIAKTGSGKTAAFIWPMLIHIMDQKELEPGDGPIAVIVCPTRELCQQIHAECKRFGKAYNLRSVAVYGGGSMWEQAKALQEGAEIVVCTPGRLIDHVKKKATNLQRVSYLVFDEADRMFDMGFEYQVRSIASHVRPDRQTLLFSATFRKKIEKLARDILIDPIRVVQGDIGEANEDVTQIVEILHSGPSKWNWLTRRLVEFTSSGSVLLFVTKKANAEELANNLKQEGHNLGLLHGDMDQSERNKVISDFKKKDIPVLVATDVAARGLDIPSIKTVINYDVARDIDTHTHRIGRTGRAGEKGVAYTLLTPKDSNFAGDLVRNLEGANQHVSKELLDLAMQNAWFRKSRFKGGKGKKLNIGGGGLGYRERPGLGSENMDRGNNNVMSNYEAYKPSTGAMGDRLTAMKAAFQSQYKSHFVAASLSNQKAGSSAAGASGWTSAGSLNSVPTNSAQQGHNSPDSPVTSAAKGIPGFGNTGNISGAPVTYPSAGAQGVNNTASGNNSREGTGGSNGKRERYTENRGSSRHSHGETGNRHSDSPRHGDGGRHGDGYRHPESSSRHTDGHRHGENRHGGSAGRHGENRGANDGRNGESRKEAFNRESKMEPKMEPKVDSSKMDKVDSKTDKTADGFAVPEPPKRKKSRWDS [DDX42] | 0.145 | -0.252 | 3.02 | 7.75 | 47.2 | 48.8
2 | MPAGRAARTCALLALCLLGAGAQDFGPTRFICTSVPVDADMCAASVAAGGAEELRSSVLQLRETVLQQKETILSQKETIRELTAKLGRCESQSTLDPGAGEARAGGGRKQPGSGKNTMGDLSRTPAAETLSQLGQTLQSLKTRLENLEQYSRLNSSSQTNSLKDLLQSKIDELERQVLSRVNTLEEGKGGPRNDTEERVKIETALTSLHQRISELEKGQKDNRPGDKFQLTFPLRTNYMYAKVKKSLPEMYAFTVCMWLKSSATPGVGTPFSYAVPGQANELVLIEWGNNPMEILINDKVAKLPFVINDGKWHHICVTWTTRDGVWEAYQDGTQGGSGENLAPYHPIKPQGVLVLGQEQDTLGGGFDATQAFVGELAHFNIWDRKLTPGEVYNLATCSTKALSGNVIAWAESHIEIYGGATKWTFEACRQIN [NPTX1] | -0.119 | 0.224 | 3.28 | 3.79 | 54 | 55.4
3 | MPATLLRAVARSHHILSKAHQCRRIGHLMLKPLKEFENTTCSTLTIRQSLDLFLPDKTASGLNKSQILEMNQKKSDTSMLSPLNAARCQDEKAHLPTMKSFGTHRRVTHKPNLLGSKWFIKILKRHFSSVSTETFVPKQDFPQVKRPLKASRTRQPSRTNLPVLSVNEDLMHCTAFATADEYHLGNLSQDLASHGYVEVTSLPRDAANILVMGVENSAKEGDPGTIFFFREGAAVFWNVKDKTMKHVMKVLEKHEIQPYEIALVHWENEELNYIKIEGQSKLHRGEIKLNSELDLDDAILEKFAFSNALCLSVKLAIWEASLDKFIESIQSIPEALKAGKKVKLSHEEVMQKIGELFALRHRINLSSDFLITPDFYWDRENLEGLYDKTCQFLSIGRRVKVMNEKLQHCMELTDLMRNHLNEKRALRLEWMIVILITIEVMFELGRVFF [RMND1] | -0.125 | -0.145 | -1 | -0.87 | 52.1 | 51.2
4 | MPDENIFLFVPNLIGYARIVFAIISFYFMPCCPLTASSFYLLSGLLDAFDGHAARALNQGTRFGAMLDMLTDRCSTMCLLVNLALLYPGATLFFQISMSLDVASHWLHLHSSVVRGSESHKMIDLSGNPVLRIYYTSRPALFTLCAGNELFYCLLYLFHFSEGPLVGSVGLFRMGLWVTAPIALLKSLISVIHLITAARNMAALDAADRAKKK [CDIPT] | -0.0289 | -0.0899 | -2.08 | -1.66 | 54.7 | 59.4
5 | MPEINTNHLDKQQVQLLAEMCILIDENDNKIGAETKKNCHLNENIEKGLLHRAFSVFLFNTENKLLLQQRSDAKITFPGCFTNTCCSHPLSNPAELEESDALGVRRAAQRRLKAELGIPLEEVPPEEINYLTRIHYKAQSDGIWGEHEIDYILLVRKNVTLNPDPNEIKSYCYVSKEELKELLKKAASGEIKITPWFKIIAATFLFKWWDNLNHLNQFVDHEKIYRM [IDI1] | 0.0595 | 0.145 | 0.472 | -0.519 | 54.1 | 53.4
6 | MPEIVDTCSLASPASVCRTKHLHLRCSVDFTRRTLTGTAALTVQSQEDNLRSLVLDTKDLTIEKVVINGQEVKYALGERQSYKGSPMEISLPIALSKNQEIVIEISFETSPKSSALQWLTPEQTSGKEHPYLFSQCQAIHCRAILPCQDTPSVKLTYTAEVSVPKELVALMSAIRDGETPDPEDPSRKIYKFIQKVPIPCYLIALVVGALESRQIGPRTLVWSEKEQVEKSAYEFSETESMLKIAEDLGGPYVWGQYDLLVLPPSFPYGGMENPCLTFVTPTLLAGDKSLSNVIAHEISHSWTGNLVTNKTWDHFWLNEGHTVYLERHICGRLFGEKFRHFNALGGWGELQNSVKTFGETHPFTKLVVDLTDIDPDVAYSSVPYEKGFALLFYLEQLLGGPEIFLGFLKAYVEKFSYKSITTDDWKDFLYSYFKDKVDVLNQVDWNAWLYSPGLPPIKPNYDMTLTNACIALSQRWITAKEDDLNSFNATDLKDLSSHQLNEFLAQTLQRAPLPLGHIKRMQEVYNFNAINNSEIRFRWLRLCIQSKWEDAIPLALKMATEQGRMKFTRPLFKDLAAFDKSHDQAVRTYQEHKASMHPVTAMLVGKDLKVD [LTA4H] | -0.173 | 0.0608 | 1.7 | 0.372 | 53 | 53
7 | MPENVAPRSGATAGAAGGRGKGAYQDRDKPAQIRFSNISAAKAVADAIRTSLGPKGMDKMIQDGKGDVTITNDGATILKQMQVLHPAARMLVELSKAQDIEAGDGTTSVVIIAGSLLDSCTKLLQKGIHPTIISESFQKALEKGIEILTDMSRPVELSDRETLLNSATTSLNSKVVSQYSSLLSPMSVNAVMKVIDPATATSVDLRDIKIVKKLGGTIDDCELVEGLVLTQKVSNSGITRVEKAKIGLIQFCLSAPKTDMDNQIVVSDYAQMDRVLREERAYILNLVKQIKKTGCNVLLIQKSILRDALSDLALHFLNKMKIMVIKDIEREDIEFICKTIGTKPVAHIDQFTADMLGSAELAEEVNLNGSGKLLKITGCASPGKTVTIVVRGSNKLVIEEAERSIHDALCVIRCLVKKRALIAGGGAPEIELALRLTEYSRTLSGMESYCVRAFADAMEVIPSTLAENAGLNPISTVTELRNRHAQGEKTAGINVRKGGISNILEELVVQPLLVSVSALTLATETVRSILKIDDVVNTR [CCT4] | -0.141 | 0.192 | -1.23 | -2.24 | 53.6 | 53.1
8 | MPGETEEPRPPEQQDQEGGEAAKAAPEEPQQRPPEAVAAAPAGTTSSRVLRGGRDRGRAAAAAAAAAVSRRRKAEYPRRRRSSPSARPPDVPGQQPQAAKSPSPVQGKKSPRLLCIEKVTTDKDPKEEKEEEDDSALPQEVSIAASRPSRGWRSSRTSVSRHRDTENTRSSRSKTGSLQLICKSEPNTDQLDYDVGEEHQSPGGISSEEEEEEEEEMLISEEEIPFKDDPRDETYKPHLERETPKPRRKSGKVKEEKEKKEIKVEVEVEVKEEENEIREDEEPPRKRGRRRKDDKSPRLPKRRKKPPIQYVRCEMEGCGTVLAHPRYLQHHIKYQHLLKKKYVCPHPSCGRLFRLQKQLLRHAKHHTDQRDYICEYCARAFKSSHNLAVHRMIHTGEKPLQCEICGFTCRQKASLNWHMKKHDADSFYQFSCNICGKKFEKKDSVVAHKAKSHPEVLIAEALAANAGALITSTDILGTNPESLTQPSDGQGLPLLPEPLGNSTSGECLLLEAEGMSKSYCSGTERVSLMADGKIFVGSGSSGGTEGLVMNSDILGATTEVLIEDSDSAGP [ZFP91] | 0.0732 | -0.401 | 2.06 | 1.42 | 51.9 | 53.2
9 | MPGKLKVKIVAGRHLPVMDRASDLTDAFVEVKFGNTTFKTDVYLKSLNPQWNSEWFKFEVDDEDLQDEPLQITVLDHDTYSANDAIGKVYIDIDPLLYSEAATVISGWFPIYDTIHGIRGEINVVVKVDLFNDLNRFRQSSCGVKFFCTTSIPKCYRAVIIHGFVEELVVNEDPEYQWIDRIRTPRASNEARQRLISLMSGELQRKIGLKVLEMRGNAVVGYLQCFDLEGESGLVVRAIGTACTLDKLSSPAAFLPACNSPSKEMKEIPFNEDPNPNTHSSGPSTPLKNQTYSFSPSKSYSRQSSSSDTDLSLTPKTGMGSGSAGKEGGPFKALLRQQTQSALEQREFPFFTLTAFPPGFLVHVGGVVSARSVKLLDRIHNPDEPETRDAWWAEIRQEIKSHAKALGCHAVVGYSESTSICEEVCILSASGTAAVLNPRFLQDGTVEGCLEQRLEENLPTRCGFCHIPYDELNMPFPAHLTYCYNCRKQKVPDVLFTTIDLPTDATVIGKGCLIQARLCRLKKKAQAEANATAISNLLPFMEYEVHTQLMNKLKLKGMNALFGLRIQITVGENMLMGLASATGVYLAALPTPGGIQIAGKTPNDGSYEQHISHMQKKINDTIAKNKELYEINPPEISEEIIGSPIPEPRQRSRLLRSQSESSDEVTELDLSHGKKDAFVLEIDDTDAMEDVHSLLTDVPPPSGFYSCNTEIMPGINNWTSEIQMFTSVRVIRLSSLNLTNQALNKNFNDLCENLLKSLYFKLRSMIPCCLCHVNFTVSLPEDELIQVTVTAVAITFDKNQALQTTKTPVEKSLQRASTDNEELLQFPLELCSDSLPSHPFPPAKAMTVEKASPVGDGNFRNRSAPPCANSTVGVVKMTPLSFIPGAKITKYLGIINMFFIRETTSLREEGGVSGFLHAFIAEVFAMVRAHVAALGGNAVVSYIMKQCVFMENPNKNQAQCLINVSGDAVVFVRESDLEVVSSQQPTTNCQSSCTEGEVTT [C2CD5] | -0.067 | 0.000995 | 0.25 | -0.02 | 52.2 | 52.3
10 | MPGVIPSESNGLSRGSPSKKNRLSLKFFQKKETKRALDFTDSQENEEKASEYRASEIDQVVPAAQSSPINCEKRENLLPFVGLNNLGNTCYLNSILQVLYFCPGFKSGVKHLFNIISRKKEALKDEANQKDKGNCKEDSLASYELICSLQSLIISVEQLQASFLLNPEKYTDELATQPRRLLNTLRELNPMYEGYLQHDAQEVLQCILGNIQETCQLLKKEEVKNVAELPTKVEEIPHPKEEMNGINSIEMDSMRHSEDFKEKLPKGNGKRKSDTEFGNMKKKVKLSKEHQSLEENQRQTRSKRKATSDTLESPPKIIPKYISENESPRPSQKKSRVKINWLKSATKQPSILSKFCSLGKITTNQGVKGQSKENECDPEEDLGKCESDNTTNGCGLESPGNTVTPVNVNEVKPINKGEEQIGFELVEKLFQGQLVLRTRCLECESLTERREDFQDISVPVQEDELSKVEESSEISPEPKTEMKTLRWAISQFASVERIVGEDKYFCENCHHYTEAERSLLFDKMPEVITIHLKCFAASGLEFDCYGGGLSKINTPLLTPLKLSLEEWSTKPTNDSYGLFAVVMHSGITISSGHYTASVKVTDLNSLELDKGNFVVDQMCEIGKPEPLNEEEARGVVENYNDEEVSIRVGGNTQPSKVLNKKNVEAIGLLGGQKSKADYELYNKASNPDKVASTAFAENRNSETSDTTGTHESDRNKESSDQTGINISGFENKISYVVQSLKEYEGKWLLFDDSEVKVTEEKDFLNSLSPSTSPTSTPYLLFYKKL [USP1] | -0.0658 | -0.118 | 0.238 | 1.6 | 48.8 | 
